According to PMC12458081:

Biological target: T1, Fkh1-DBD (Saccharomyces cerevisiae, UniProt P40466 299-421)
T1 sequence: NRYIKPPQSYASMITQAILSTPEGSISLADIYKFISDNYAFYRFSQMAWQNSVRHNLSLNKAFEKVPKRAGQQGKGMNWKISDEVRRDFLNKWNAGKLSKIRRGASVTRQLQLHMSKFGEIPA
Assay: X-ray crystallography

B1: 19-bp DNA binding oligo (dsDNA)
DNA 1: CGAAATGTAAACATACCGC
DNA 2: GCGGTATGTTTACATTTCG
binding result: binds
